Test results published in patent publication US20180155451A1 (published 2018).

B1: GpH7-A5/GpH7-B3 variant P329_04F/GpL16-k0 (antibody, human IgG1, kappa)
heavy 1: not shown
heavy 2: not shown
light: DIVMTQSPLSLPVTPGEPASISCQASESLVHSNRNTYLHWYLQKPGQSPQLLIYKVSNRFSGVPDRFSGSGSGTDFTLKISRVEAEDVGVYYCSQNTHVPPTFGQGTKVEIERTVAAPSVFIFPPSDEQLKSGTASVVCLLNNFYPREAKVQWKVDNALQSGNSQESVTEQDSKDSTYSLSSTLTLSKADYEKHKVYACEVTHQGLSSPVTKSFNRGEC
notes: He Ab; IgG1; mutation in one H chain only; also called He Ab
B2: GpH7-A5/GpH7-B3 variant P329_13S/GpL16-k0 (antibody, human IgG1, kappa)
heavy 1: not shown
heavy 2: not shown
light: DIVMTQSPLSLPVTPGEPASISCQASESLVHSNRNTYLHWYLQKPGQSPQLLIYKVSNRFSGVPDRFSGSGSGTDFTLKISRVEAEDVGVYYCSQNTHVPPTFGQGTKVEIERTVAAPSVFIFPPSDEQLKSGTASVVCLLNNFYPREAKVQWKVDNALQSGNSQESVTEQDSKDSTYSLSSTLTLSKADYEKHKVYACEVTHQGLSSPVTKSFNRGEC
notes: as for B1
B3: GpH7-A5/GpH7-B3 variant P329_19Q/GpL16-k0 (antibody, human IgG1, kappa)
heavy 1: not shown
heavy 2: not shown
light: DIVMTQSPLSLPVTPGEPASISCQASESLVHSNRNTYLHWYLQKPGQSPQLLIYKVSNRFSGVPDRFSGSGSGTDFTLKISRVEAEDVGVYYCSQNTHVPPTFGQGTKVEIERTVAAPSVFIFPPSDEQLKSGTASVVCLLNNFYPREAKVQWKVDNALQSGNSQESVTEQDSKDSTYSLSSTLTLSKADYEKHKVYACEVTHQGLSSPVTKSFNRGEC
notes: as for B1
B4: GpH7-A5/GpH7-B3 variant S324_09D/GpL16-k0 (antibody, human IgG1, kappa)
heavy 1: not shown
heavy 2: not shown
light: DIVMTQSPLSLPVTPGEPASISCQASESLVHSNRNTYLHWYLQKPGQSPQLLIYKVSNRFSGVPDRFSGSGSGTDFTLKISRVEAEDVGVYYCSQNTHVPPTFGQGTKVEIERTVAAPSVFIFPPSDEQLKSGTASVVCLLNNFYPREAKVQWKVDNALQSGNSQESVTEQDSKDSTYSLSSTLTLSKADYEKHKVYACEVTHQGLSSPVTKSFNRGEC
notes: as for B1
B5: GpH7-A5/GpH7-B3 variant S324_11K/GpL16-k0 (antibody, human IgG1, kappa)
heavy 1: not shown
heavy 2: not shown
light: DIVMTQSPLSLPVTPGEPASISCQASESLVHSNRNTYLHWYLQKPGQSPQLLIYKVSNRFSGVPDRFSGSGSGTDFTLKISRVEAEDVGVYYCSQNTHVPPTFGQGTKVEIERTVAAPSVFIFPPSDEQLKSGTASVVCLLNNFYPREAKVQWKVDNALQSGNSQESVTEQDSKDSTYSLSSTLTLSKADYEKHKVYACEVTHQGLSSPVTKSFNRGEC
notes: as for B1
B6: GpH7-A5/GpH7-B3 variant P329_12R/GpL16-k0 (antibody, human IgG1, kappa)
heavy 1: not shown
heavy 2: not shown
light: DIVMTQSPLSLPVTPGEPASISCQASESLVHSNRNTYLHWYLQKPGQSPQLLIYKVSNRFSGVPDRFSGSGSGTDFTLKISRVEAEDVGVYYCSQNTHVPPTFGQGTKVEIERTVAAPSVFIFPPSDEQLKSGTASVVCLLNNFYPREAKVQWKVDNALQSGNSQESVTEQDSKDSTYSLSSTLTLSKADYEKHKVYACEVTHQGLSSPVTKSFNRGEC
notes: as for B1
B7: GpH7-A5/GpH7-B3 variant P329_16H/GpL16-k0 (antibody, human IgG1, kappa)
heavy 1: not shown
heavy 2: not shown
light: DIVMTQSPLSLPVTPGEPASISCQASESLVHSNRNTYLHWYLQKPGQSPQLLIYKVSNRFSGVPDRFSGSGSGTDFTLKISRVEAEDVGVYYCSQNTHVPPTFGQGTKVEIERTVAAPSVFIFPPSDEQLKSGTASVVCLLNNFYPREAKVQWKVDNALQSGNSQESVTEQDSKDSTYSLSSTLTLSKADYEKHKVYACEVTHQGLSSPVTKSFNRGEC
notes: as for B1
B8: GpH7-A5/GpH7-B3 variant S324_01G/GpL16-k0 (antibody, human IgG1, kappa)
heavy 1: not shown
heavy 2: not shown
light: DIVMTQSPLSLPVTPGEPASISCQASESLVHSNRNTYLHWYLQKPGQSPQLLIYKVSNRFSGVPDRFSGSGSGTDFTLKISRVEAEDVGVYYCSQNTHVPPTFGQGTKVEIERTVAAPSVFIFPPSDEQLKSGTASVVCLLNNFYPREAKVQWKVDNALQSGNSQESVTEQDSKDSTYSLSSTLTLSKADYEKHKVYACEVTHQGLSSPVTKSFNRGEC
notes: as for B1
B9: GpH7-A5/GpH7-B3 variant P329_11K/GpL16-k0 (antibody, human IgG1, kappa)
heavy 1: not shown
heavy 2: not shown
light: DIVMTQSPLSLPVTPGEPASISCQASESLVHSNRNTYLHWYLQKPGQSPQLLIYKVSNRFSGVPDRFSGSGSGTDFTLKISRVEAEDVGVYYCSQNTHVPPTFGQGTKVEIERTVAAPSVFIFPPSDEQLKSGTASVVCLLNNFYPREAKVQWKVDNALQSGNSQESVTEQDSKDSTYSLSSTLTLSKADYEKHKVYACEVTHQGLSSPVTKSFNRGEC
notes: as for B1
B10: GpH7-A5/GpH7-B3 variant P329_06M/GpL16-k0 (antibody, human IgG1, kappa)
heavy 1: not shown
heavy 2: not shown
light: DIVMTQSPLSLPVTPGEPASISCQASESLVHSNRNTYLHWYLQKPGQSPQLLIYKVSNRFSGVPDRFSGSGSGTDFTLKISRVEAEDVGVYYCSQNTHVPPTFGQGTKVEIERTVAAPSVFIFPPSDEQLKSGTASVVCLLNNFYPREAKVQWKVDNALQSGNSQESVTEQDSKDSTYSLSSTLTLSKADYEKHKVYACEVTHQGLSSPVTKSFNRGEC
notes: as for B1
B11: GpH7-A5/GpH7-B3 variant S324_02A/GpL16-k0 (antibody, human IgG1, kappa)
heavy 1: not shown
heavy 2: not shown
light: DIVMTQSPLSLPVTPGEPASISCQASESLVHSNRNTYLHWYLQKPGQSPQLLIYKVSNRFSGVPDRFSGSGSGTDFTLKISRVEAEDVGVYYCSQNTHVPPTFGQGTKVEIERTVAAPSVFIFPPSDEQLKSGTASVVCLLNNFYPREAKVQWKVDNALQSGNSQESVTEQDSKDSTYSLSSTLTLSKADYEKHKVYACEVTHQGLSSPVTKSFNRGEC
notes: as for B1
B12: GpH7-A5/GpH7-B3 variant P329_08L/GpL16-k0 (antibody, human IgG1, kappa)
heavy 1: not shown
heavy 2: not shown
light: DIVMTQSPLSLPVTPGEPASISCQASESLVHSNRNTYLHWYLQKPGQSPQLLIYKVSNRFSGVPDRFSGSGSGTDFTLKISRVEAEDVGVYYCSQNTHVPPTFGQGTKVEIERTVAAPSVFIFPPSDEQLKSGTASVVCLLNNFYPREAKVQWKVDNALQSGNSQESVTEQDSKDSTYSLSSTLTLSKADYEKHKVYACEVTHQGLSSPVTKSFNRGEC
notes: as for B1
B13: GpH7-A5/GpH7-B3 variant P329_15Y/GpL16-k0 (antibody, human IgG1, kappa)
heavy 1: not shown
heavy 2: not shown
light: DIVMTQSPLSLPVTPGEPASISCQASESLVHSNRNTYLHWYLQKPGQSPQLLIYKVSNRFSGVPDRFSGSGSGTDFTLKISRVEAEDVGVYYCSQNTHVPPTFGQGTKVEIERTVAAPSVFIFPPSDEQLKSGTASVVCLLNNFYPREAKVQWKVDNALQSGNSQESVTEQDSKDSTYSLSSTLTLSKADYEKHKVYACEVTHQGLSSPVTKSFNRGEC
notes: as for B1
B14: GpH7-A5/GpH7-B3 variant P329_07I/GpL16-k0 (antibody, human IgG1, kappa)
heavy 1: not shown
heavy 2: not shown
light: DIVMTQSPLSLPVTPGEPASISCQASESLVHSNRNTYLHWYLQKPGQSPQLLIYKVSNRFSGVPDRFSGSGSGTDFTLKISRVEAEDVGVYYCSQNTHVPPTFGQGTKVEIERTVAAPSVFIFPPSDEQLKSGTASVVCLLNNFYPREAKVQWKVDNALQSGNSQESVTEQDSKDSTYSLSSTLTLSKADYEKHKVYACEVTHQGLSSPVTKSFNRGEC
notes: as for B1
B15: GpH7-A5/GpH7-B3 variant S324_10E/GpL16-k0 (antibody, human IgG1, kappa)
heavy 1: not shown
heavy 2: not shown
light: DIVMTQSPLSLPVTPGEPASISCQASESLVHSNRNTYLHWYLQKPGQSPQLLIYKVSNRFSGVPDRFSGSGSGTDFTLKISRVEAEDVGVYYCSQNTHVPPTFGQGTKVEIERTVAAPSVFIFPPSDEQLKSGTASVVCLLNNFYPREAKVQWKVDNALQSGNSQESVTEQDSKDSTYSLSSTLTLSKADYEKHKVYACEVTHQGLSSPVTKSFNRGEC
notes: as for B1
B16: GpH7-A5/GpH7-B3 variant P329_14T/GpL16-k0 (antibody, human IgG1, kappa)
heavy 1: not shown
heavy 2: not shown
light: DIVMTQSPLSLPVTPGEPASISCQASESLVHSNRNTYLHWYLQKPGQSPQLLIYKVSNRFSGVPDRFSGSGSGTDFTLKISRVEAEDVGVYYCSQNTHVPPTFGQGTKVEIERTVAAPSVFIFPPSDEQLKSGTASVVCLLNNFYPREAKVQWKVDNALQSGNSQESVTEQDSKDSTYSLSSTLTLSKADYEKHKVYACEVTHQGLSSPVTKSFNRGEC
notes: as for B1
B17: GpH7-A5/GpH7-B3 variant P329_18N/GpL16-k0 (antibody, human IgG1, kappa)
heavy 1: not shown
heavy 2: not shown
light: DIVMTQSPLSLPVTPGEPASISCQASESLVHSNRNTYLHWYLQKPGQSPQLLIYKVSNRFSGVPDRFSGSGSGTDFTLKISRVEAEDVGVYYCSQNTHVPPTFGQGTKVEIERTVAAPSVFIFPPSDEQLKSGTASVVCLLNNFYPREAKVQWKVDNALQSGNSQESVTEQDSKDSTYSLSSTLTLSKADYEKHKVYACEVTHQGLSSPVTKSFNRGEC
notes: as for B1

Legend:
[1] = target: T1, FcγRIIa H (FcγRIIa type H, His at position 131), extracellular domain with C-terminal His tag (human, UniProt P12318 34-217); assay: SPR Biacore; He/Con_2aH divided by He/Con_2b (reference: FcgRIIb)
T1 construct: extracellular domain; Expressed in FreeStyle293 cells; analyte in the Biacore assay; also called FcgRIIa H; 2aH; not shown: His tag at the C terminus
T1 sequence (looked up): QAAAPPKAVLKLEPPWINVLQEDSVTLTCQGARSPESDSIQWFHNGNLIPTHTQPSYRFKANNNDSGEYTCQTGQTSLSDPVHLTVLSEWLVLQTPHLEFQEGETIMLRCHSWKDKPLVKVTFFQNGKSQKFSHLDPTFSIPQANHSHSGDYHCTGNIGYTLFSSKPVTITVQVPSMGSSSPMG

[2] = target: T1, FcγRIIa H (FcγRIIa type H, His at …); assay: SPR Biacore, captured antibody, FcgR analyte; GpH7-A5/GpH7-B3/GpL16-k0 = 100
[3] = target: T2, FcγRIIb, extracellular domain with C-terminal His tag (human, UniProt P31994 43-217); assay: as above
T2 construct: extracellular domain; Expressed in FreeStyle293 cells; analyte in the Biacore assay; also called FcgRIIb; 2b; not shown: His tag at the C terminus
T2 sequence (looked up): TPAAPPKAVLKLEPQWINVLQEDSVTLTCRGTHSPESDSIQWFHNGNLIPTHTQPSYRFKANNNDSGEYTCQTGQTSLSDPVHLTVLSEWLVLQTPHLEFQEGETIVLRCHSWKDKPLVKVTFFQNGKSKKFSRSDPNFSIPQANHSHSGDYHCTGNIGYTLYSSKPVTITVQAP

| Binder | He_2aH/2b (IIaH/IIb) [1] | He/Con_2aH [2] | He/Con_2b [3] |
| --- | --- | --- | --- |
| B1 | 1.38 | 44.5 % of HeCon Ab | 32.2 % of HeCon Ab |
| B2 | 1.64 | 67.3 % of HeCon Ab | 41 % of HeCon Ab |
| B3 | 1.26 | 38.7 % of HeCon Ab | 30.7 % of HeCon Ab |
| B4 | 1.23 | 106 % of HeCon Ab | 85.8 % of HeCon Ab |
| B5 | 1.34 | 92.2 % of HeCon Ab | 68.6 % of HeCon Ab |
| B6 | 2.63 | 46.4 % of HeCon Ab | 17.6 % of HeCon Ab |
| B7 | 1.69 | 66.1 % of HeCon Ab | 39.1 % of HeCon Ab |
| B8 | 1.22 | 98.8 % of HeCon Ab | 81.1 % of HeCon Ab |
| B9 | 2.74 | 46.2 % of HeCon Ab | 16.9 % of HeCon Ab |
| B10 | 1.5 | 43.7 % of HeCon Ab | 29.1 % of HeCon Ab |
| B11 | 1.31 | 102 % of HeCon Ab | 78.3 % of HeCon Ab |
| B12 | 1.56 | 45.4 % of HeCon Ab | 29.1 % of HeCon Ab |
| B13 | 1.5 | 68.7 % of HeCon Ab | 45.7 % of HeCon Ab |
| B14 | 1.56 | 53.8 % of HeCon Ab | 34.6 % of HeCon Ab |
| B15 | 1.33 | 103 % of HeCon Ab | 77.4 % of HeCon Ab |
| B16 | 1.65 | 62.4 % of HeCon Ab | 37.9 % of HeCon Ab |
| B17 | 1.64 | 66.2 % of HeCon Ab | 40.4 % of HeCon Ab |
